Data on two molecules can be found in patent US20200407442A1 (WUXI BIOLOGICS IRELAND, published 2020).

Common to all, as to assay: ELISA, antibody coated, LAG-3 D12.mFc mutant in supernatant, normalised to control mutants
A general note: ELISA stands for enzyme-linked immunosorbent assay.

Test [1] concerns the target T1, human LAG-3-ECD.D12.mFc mutant P43A (human, UniProt P18627 37-252).
T1 construct: Alanine scanning mutant; construct limits as for m26
T1 chain: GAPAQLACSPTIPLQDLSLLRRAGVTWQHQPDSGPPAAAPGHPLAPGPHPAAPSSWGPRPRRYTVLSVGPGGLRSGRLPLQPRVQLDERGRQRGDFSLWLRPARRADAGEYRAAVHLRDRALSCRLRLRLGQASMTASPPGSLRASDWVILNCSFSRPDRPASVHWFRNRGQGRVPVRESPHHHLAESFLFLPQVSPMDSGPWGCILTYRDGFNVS
The method in brief:
(§1)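 Antibody 1.53.3-uAb-IgG4k or 3.40.19-uAb-hIgG4L coated at 2 μg/mL, then exposed to supernatant containing quantified LAG-3 D12.mFc mutants. Detection with HRP anti-mFc (1:5000). Absorbance normalized to mean of control mutants; binding fold change <0.75 set as epitope cutoff.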

The target in test [2] is T2, human LAG-3-ECD.D12.mFc mutant P138A (human, UniProt P18627 37-252).
T2 construct: Alanine scanning mutant; construct limits as for m26
T2 chain: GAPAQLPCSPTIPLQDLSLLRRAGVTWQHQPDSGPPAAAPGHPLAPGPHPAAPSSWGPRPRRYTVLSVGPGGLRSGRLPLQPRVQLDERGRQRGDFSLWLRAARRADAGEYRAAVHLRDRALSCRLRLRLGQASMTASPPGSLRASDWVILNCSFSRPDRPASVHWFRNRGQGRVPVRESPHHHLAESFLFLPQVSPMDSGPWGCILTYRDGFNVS
The method in brief: as §1

The target in test [3] is T3, human LAG-3-ECD.D12.mFc mutant D131A (human, UniProt P18627 37-252).
T3 construct: Alanine scanning mutant; construct limits as for m26
T3 chain: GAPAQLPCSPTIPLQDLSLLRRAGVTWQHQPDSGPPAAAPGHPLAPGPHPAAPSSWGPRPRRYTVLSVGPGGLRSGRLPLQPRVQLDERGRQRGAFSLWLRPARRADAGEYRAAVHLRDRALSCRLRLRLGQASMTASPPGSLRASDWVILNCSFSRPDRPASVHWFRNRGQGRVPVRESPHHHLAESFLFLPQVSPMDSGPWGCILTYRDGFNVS
The method in brief:
as §1

Test [4] deals with T4, human LAG-3-ECD.D12.mFc mutant T100A (human, UniProt P18627 37-252).
T4 construct: Alanine scanning mutant; construct limits as for m26
T4 chain: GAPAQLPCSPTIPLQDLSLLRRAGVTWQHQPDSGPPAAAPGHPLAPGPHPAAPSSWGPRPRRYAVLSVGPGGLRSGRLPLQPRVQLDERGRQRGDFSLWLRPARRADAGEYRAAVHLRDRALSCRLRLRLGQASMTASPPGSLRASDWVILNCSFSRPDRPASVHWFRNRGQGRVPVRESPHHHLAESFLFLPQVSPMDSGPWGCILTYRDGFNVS
The method in brief: as §1

Test [5] addresses T5, human LAG-3-ECD.D12.mFc mutant T62A (human, UniProt P18627 37-252).
T5 construct: Alanine scanning mutant; construct limits as for m26
T5 chain: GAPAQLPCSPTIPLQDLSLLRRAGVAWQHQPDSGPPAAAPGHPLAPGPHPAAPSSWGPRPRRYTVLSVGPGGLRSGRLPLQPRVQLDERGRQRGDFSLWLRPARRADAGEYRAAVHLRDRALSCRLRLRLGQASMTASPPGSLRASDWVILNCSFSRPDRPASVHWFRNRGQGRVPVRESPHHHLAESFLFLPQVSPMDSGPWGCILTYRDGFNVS
Put shortly:
as §1

In test [6] the target is T6, human LAG-3-ECD.D12.mFc mutant L136A (human, UniProt P18627 37-252).
T6 construct: Alanine scanning mutant; construct limits as for m26
T6 chain: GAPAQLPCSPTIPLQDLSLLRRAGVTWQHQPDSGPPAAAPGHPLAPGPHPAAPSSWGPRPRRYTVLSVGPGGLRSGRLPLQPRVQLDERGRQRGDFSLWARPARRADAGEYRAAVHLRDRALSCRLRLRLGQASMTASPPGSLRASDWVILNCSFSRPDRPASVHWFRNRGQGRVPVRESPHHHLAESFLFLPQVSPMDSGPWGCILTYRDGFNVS
The method in brief: as §1

The target in test [7] is T7, human LAG-3-ECD.D12.mFc mutant W92A (human, UniProt P18627 37-252).
T7 construct: Alanine scanning mutant; construct limits as for m26
T7 chain: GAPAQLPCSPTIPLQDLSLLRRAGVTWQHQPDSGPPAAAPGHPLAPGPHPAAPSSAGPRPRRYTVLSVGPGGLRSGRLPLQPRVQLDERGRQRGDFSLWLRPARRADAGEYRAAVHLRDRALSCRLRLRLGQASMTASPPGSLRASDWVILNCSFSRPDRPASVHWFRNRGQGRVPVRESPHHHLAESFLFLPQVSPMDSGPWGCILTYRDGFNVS
Put shortly:
as §1

Test [8] deals with T8, human LAG-3-ECD.D12.mFc mutant P72A (human, UniProt P18627 37-252).
T8 construct: Alanine scanning mutant; construct limits as for m26
T8 chain: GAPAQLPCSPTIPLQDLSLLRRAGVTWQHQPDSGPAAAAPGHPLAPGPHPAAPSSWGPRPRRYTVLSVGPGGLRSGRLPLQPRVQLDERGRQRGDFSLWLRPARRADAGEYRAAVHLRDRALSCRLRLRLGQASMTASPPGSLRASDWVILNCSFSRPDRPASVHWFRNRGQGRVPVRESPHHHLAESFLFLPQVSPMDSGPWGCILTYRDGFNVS
The method in brief:
as §1

B1: 3.40.19-uAb-IgG4L (antibody, V domains shown)
VH: QLQLQESGPGLVKPSETLSLTCTVSGDSISSTSYYWGWIRQPPGKGLEWIGSFYYSGSTYYNPSLKSRVTISVDTSKNQFSLKLNSVTAADTAVYYCARMQLWSYDVDVWGQGTTVTVSS
VL: QSALTQPASVSGSPGQSITISCTGTSSDVGGYDYVAWYQQHPGKVPKLMIYDVSERPSGVSNRFSGSKSGNTASLTISGLQAEDEADYYCSSYTSTTTLVVFGGGTKLSVL
notes: Fully human antibody from OMT rats; IgG4 lambda by its name; also called 3.40.19-uAb-hIgG4L
For B1, the “Fold Change” value stood at 0.494 in test [1]; 0.106 in test [2]; 0.045 in test [3]; 0.738 in test [4]; 0.727 in test [5]; 0.043 in test [6].

B2: 1.53.3-uAb-IgG4k (antibody, V domains shown)
VH: QVQLQQWGAGLLKPSETLSLTCGVYGGSFSGYYWSWIRQPPGMGLEWIGEINHRGNTNYNPSLKSRVTISEDTSKNQFSLRLSSVTAADTAVYFCTRGEDYSDYDYYGDFWGQGTLVTVSS
VL: EIVLTQSPATLSLSQGERATLSCRASQSISSYLAWYQQKPGQAPRLLIYAASNRATGIPARFSGSGSGTDFTLTISSLEPEDFAIYYCQQRSNWPLTFGGGTKVEIK
notes: Fully human antibody from OMT rats; IgG4 kappa by its name
Regarding B2, the “Fold Change” value stood at 0.554 in test [7] and 0.743 in test [8].
